In patent US20230203134A1 (published 2023):
Read-outs that look alike come from different tables or passages of the source.

B1: monoclonal antibody 2-4 (antibody, V domains shown)
VH: QVQLVQSGAEVKKPGASVKVSCKASGYTFTGYYMHWVRQAPGQGLEWMGWINPNSGGTNYTQMFQGRVTMTRDTSISTAYMEVSRLRSDDTAVYYCARDRSWAVVYYYMDVWGKGTTVTVSS
VL: QSALTQPPSASGSPGQSVTISCTGTSSDVGGYNYVSWYQQHPGKAPKLMIYEVSKRPSGVPDRFSGSKSGNTASLTVSGLQAEDEADYYCSSYAGSNNLVFGGGTKLTVL
B2: monoclonal antibody 2-38 (antibody, V domains shown)
VH: EVQLVESGGGLVKPGGSLRLSCAASGFTFSSYSMNWVRQAPGKGLEWVSSISSSSSYIYYADSVKGRFTISRDNAKNSLYLQMNSLRAEDTAVYYCTRAGWELRLDAFDIWGQGTMVTVSS
VL: SSELTQDPAVSVALGQTVRITCQGDSLRSSYASWYQQKPGQAPILVIYDKNNRPSGIPDRFSGSSSGNTASLTITGAQAEDEADYYCNSRDSSGILFGGGTKLTVL
B3: monoclonal antibody 2-15 (antibody, V domains shown)
VH: QVQLVQSGAEVKKPGASVRVSCKASGYTFTGYYMHWVRQAPGQGLEWMGWINPISDGTNYAQKFQGWVTMTRDTSISTVYMELSRLRSDDTAVYYCARGGSRCSGGNCYGWAYDAFDIWGQGTMITVSS
VL: QSALTQPASVSGSPGQSITISCTGTSSDVGGYNFVSWYQQHPGKAPKLMIYDVSKRPSGVSNRFSGSKSGNTASLTISGLQAEDEADCYCSSYTSSSTFVFGTGTKVTVL
B4: monoclonal antibody 2-51 (antibody, V domains shown)
VH: QVQLVQSGAEVKKPGASVKVSCKVSGYTLIELSMHWVRQAPGKGLEWMGGFDPEDVETIYAQQFQGRVTMTEDTSTDTAYMELSSLRSEDTAVYYCATGWAYKSTWYFGYWGQGTLVTVSS
VL: QSALTQPPSASGSPGQSVTISCTGTSSDVGGYNYVSWYQQHPGKAPKLMIYEVSKRPSGVPDRFSGSKSGNTASLTVSGLQAEDEADYYCSSYAGSRMGFGGGTKLTVL

Assays:
[1] = target: T1, SARS-CoV-2 S trimer (soluble spike ectodomain trimer) (SARS-CoV-2, UniProt P0DTC2 14-1213); assay: SPR
[2] = target: T2, SARS-CoV-2 receptor binding domain (RBD) (SARS-CoV-2, UniProt P0DTC2 319-591); assay: SPR
[3] = target: T1, SARS-CoV-2 S trimer (soluble spike …); assay: ELISA
[4] = target: T2, SARS-CoV-2 receptor binding domain (RBD); assay: ELISA
[5] = target: T1, SARS-CoV-2 S trimer (soluble spike …); assay: SPR; remark: listed apart in the source
[6] = target: T1, SARS-CoV-2 S trimer (soluble spike …); assay: SPR; remark: listed apart in the source

Row | Binder | Kd [1] | Kd [2] | EC50 [3] | EC50 [4] | Kd [5] | Kd [6]
1 | B1 | 41.2 nM | 34.2 nM | 0.018 µg/mL | 0.021 µg/mL | 8.7 nM | 
2 | B2 |  |  | 0.305 µg/mL | 0.289 µg/mL | 51.4 nM | 
3 | B3 |  |  | 0.006 µg/mL | 0.008 µg/mL | 5.7 nM | 
4 | B4 |  |  | 0.017 µg/mL |  |  | 77.1 nM
